Laboratory results reported in the supplement of paper PMC10065799, “High-throughput profiling of sequence recognition by tyrosine kinases and SH2 domains using bacterial peptide display” (eLife, 2023).

Tests used:
Hck = Hck (UniProt P08631); experiment: phosphorylation enrichment, bacterial display (enrichment ratio); higher = better substrate or ligand; peptides without Tyr show the background
Fer (mouse) = experiment: as above
Jak2 = Jak2 (UniProt O60674); experiment: as above
EPHB2 = EPHB2 (UniProt P29323); experiment: as above
Fyn = Fyn (UniProt P06241); experiment: as above
Chain of Fyn (P06241 whole entry, looked up): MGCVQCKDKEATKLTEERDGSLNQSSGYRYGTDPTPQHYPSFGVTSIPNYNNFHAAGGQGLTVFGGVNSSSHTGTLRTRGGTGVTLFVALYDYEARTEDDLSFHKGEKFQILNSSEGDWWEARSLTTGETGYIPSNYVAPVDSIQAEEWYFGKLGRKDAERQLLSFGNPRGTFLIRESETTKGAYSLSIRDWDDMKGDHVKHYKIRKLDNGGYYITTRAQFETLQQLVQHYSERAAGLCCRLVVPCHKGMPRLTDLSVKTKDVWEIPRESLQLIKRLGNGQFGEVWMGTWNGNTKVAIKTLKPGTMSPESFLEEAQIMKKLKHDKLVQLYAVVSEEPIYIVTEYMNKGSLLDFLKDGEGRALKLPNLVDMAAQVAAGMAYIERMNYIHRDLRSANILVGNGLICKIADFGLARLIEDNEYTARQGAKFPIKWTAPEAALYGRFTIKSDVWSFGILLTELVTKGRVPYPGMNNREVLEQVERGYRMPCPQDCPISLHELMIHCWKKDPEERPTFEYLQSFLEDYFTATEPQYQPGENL

EPHB1 = EPHB1 (UniProt P54762); experiment: as above
FGFR3 = FGFR3 (UniProt P22607); experiment: as above
Chain of FGFR3 (P22607 whole entry, looked up): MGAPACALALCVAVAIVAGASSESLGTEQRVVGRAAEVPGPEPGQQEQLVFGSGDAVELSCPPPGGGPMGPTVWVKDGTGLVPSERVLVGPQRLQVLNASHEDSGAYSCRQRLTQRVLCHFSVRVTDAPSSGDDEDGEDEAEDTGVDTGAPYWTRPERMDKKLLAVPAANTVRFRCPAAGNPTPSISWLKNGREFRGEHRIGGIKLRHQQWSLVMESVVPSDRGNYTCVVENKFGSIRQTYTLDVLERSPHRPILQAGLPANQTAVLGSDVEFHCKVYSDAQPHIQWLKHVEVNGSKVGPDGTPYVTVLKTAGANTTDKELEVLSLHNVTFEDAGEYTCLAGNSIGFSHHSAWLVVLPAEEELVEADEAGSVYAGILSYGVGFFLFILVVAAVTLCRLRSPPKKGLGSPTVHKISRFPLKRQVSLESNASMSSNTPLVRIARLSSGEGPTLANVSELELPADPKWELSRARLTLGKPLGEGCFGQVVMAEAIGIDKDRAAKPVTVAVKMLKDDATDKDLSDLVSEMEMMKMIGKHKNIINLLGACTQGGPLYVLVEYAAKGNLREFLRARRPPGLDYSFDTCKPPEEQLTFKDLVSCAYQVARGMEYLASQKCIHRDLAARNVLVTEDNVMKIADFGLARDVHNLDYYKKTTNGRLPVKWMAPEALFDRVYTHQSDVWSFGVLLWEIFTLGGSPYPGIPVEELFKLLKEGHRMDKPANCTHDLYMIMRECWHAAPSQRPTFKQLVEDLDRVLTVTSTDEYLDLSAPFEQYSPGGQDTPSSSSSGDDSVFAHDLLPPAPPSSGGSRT

c-Src = experiment: as above
Fes = Fes (UniProt P07332); experiment: as above
FGFR1 = FGFR1 (UniProt P11362); experiment: as above
Chain of FGFR1 (P11362 whole entry, looked up): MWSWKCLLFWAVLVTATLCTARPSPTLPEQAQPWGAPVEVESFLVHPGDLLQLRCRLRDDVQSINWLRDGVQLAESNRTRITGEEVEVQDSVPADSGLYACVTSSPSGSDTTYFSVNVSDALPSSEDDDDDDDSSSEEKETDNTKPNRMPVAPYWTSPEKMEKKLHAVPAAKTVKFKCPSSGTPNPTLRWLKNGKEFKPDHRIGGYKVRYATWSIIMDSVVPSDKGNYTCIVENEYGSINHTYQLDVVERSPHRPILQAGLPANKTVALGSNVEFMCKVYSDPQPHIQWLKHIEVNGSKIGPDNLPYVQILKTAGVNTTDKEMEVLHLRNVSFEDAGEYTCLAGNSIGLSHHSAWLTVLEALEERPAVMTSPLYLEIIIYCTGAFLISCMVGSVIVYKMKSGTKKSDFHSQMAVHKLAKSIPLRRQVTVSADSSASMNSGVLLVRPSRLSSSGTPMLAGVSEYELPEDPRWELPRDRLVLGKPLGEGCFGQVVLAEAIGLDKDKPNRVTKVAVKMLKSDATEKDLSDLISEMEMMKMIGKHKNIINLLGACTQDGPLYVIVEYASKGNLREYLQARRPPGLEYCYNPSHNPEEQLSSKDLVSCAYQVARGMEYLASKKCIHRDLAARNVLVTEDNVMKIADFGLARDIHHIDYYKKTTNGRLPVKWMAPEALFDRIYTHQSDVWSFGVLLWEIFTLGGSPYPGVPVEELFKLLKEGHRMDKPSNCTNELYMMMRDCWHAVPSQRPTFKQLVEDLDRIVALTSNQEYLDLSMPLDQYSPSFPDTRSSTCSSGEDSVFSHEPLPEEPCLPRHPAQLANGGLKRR

MERTK = MERTK (UniProt Q12866); experiment: as above
Chain of MERTK (Q12866 whole entry, looked up): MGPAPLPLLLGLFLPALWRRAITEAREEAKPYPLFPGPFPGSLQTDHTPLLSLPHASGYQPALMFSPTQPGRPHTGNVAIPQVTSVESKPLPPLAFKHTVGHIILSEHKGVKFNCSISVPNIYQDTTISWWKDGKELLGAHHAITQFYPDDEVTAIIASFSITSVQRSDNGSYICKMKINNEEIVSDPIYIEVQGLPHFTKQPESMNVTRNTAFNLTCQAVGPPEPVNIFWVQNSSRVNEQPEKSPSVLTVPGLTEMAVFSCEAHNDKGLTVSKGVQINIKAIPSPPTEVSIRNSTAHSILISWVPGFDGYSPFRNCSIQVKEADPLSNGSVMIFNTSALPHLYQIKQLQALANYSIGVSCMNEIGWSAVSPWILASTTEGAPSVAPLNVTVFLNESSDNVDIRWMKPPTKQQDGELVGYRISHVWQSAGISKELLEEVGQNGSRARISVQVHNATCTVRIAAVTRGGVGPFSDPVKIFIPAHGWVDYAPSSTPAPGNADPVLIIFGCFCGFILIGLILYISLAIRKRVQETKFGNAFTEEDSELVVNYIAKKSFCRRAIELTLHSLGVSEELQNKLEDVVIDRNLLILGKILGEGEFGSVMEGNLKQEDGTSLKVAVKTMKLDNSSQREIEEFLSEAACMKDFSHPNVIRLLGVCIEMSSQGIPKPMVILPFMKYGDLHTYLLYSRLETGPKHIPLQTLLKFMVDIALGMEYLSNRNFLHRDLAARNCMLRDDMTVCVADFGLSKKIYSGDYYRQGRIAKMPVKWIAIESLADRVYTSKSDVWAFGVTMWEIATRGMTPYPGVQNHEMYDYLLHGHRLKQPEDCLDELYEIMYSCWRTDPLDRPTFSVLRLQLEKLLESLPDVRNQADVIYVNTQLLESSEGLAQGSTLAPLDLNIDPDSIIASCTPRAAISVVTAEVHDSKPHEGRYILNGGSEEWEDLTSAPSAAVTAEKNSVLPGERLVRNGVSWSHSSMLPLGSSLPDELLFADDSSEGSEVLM

c-Abl (mouse) = experiment: as above
AncSZ = experiment: as above
Grb2 SH2 = Grb2 SH2 (UniProt P62993); experiment: SH2 binding enrichment of the phosphorylated peptide, bacterial display (enrichment ratio); higher = better substrate or ligand; peptides without Tyr show the background
c-Src SH2 = experiment: as above
SHP2-C SH2 = experiment: as above
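Wherever SH2 binding enrichment of the phosphorylated peptide, bacterial display is given: peptide library displayed on the E. coli surface as eCPX fusions, selected cells deep-sequenced, score is each peptide's frequency after selection divided by its frequency in the input.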
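Wherever phosphorylation enrichment, bacterial display is given: 11-residue human phosphosite peptides and single-mutation variants displayed on the E. coli surface, counted by deep sequencing, each peptide's frequency after selection divided by its frequency in the unselected input library; frequency after pTyr selection over input frequency; kinase dosed for 20-30% of maximal phosphorylation in three min.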

Chain of Jak2 (O60674 whole entry, looked up): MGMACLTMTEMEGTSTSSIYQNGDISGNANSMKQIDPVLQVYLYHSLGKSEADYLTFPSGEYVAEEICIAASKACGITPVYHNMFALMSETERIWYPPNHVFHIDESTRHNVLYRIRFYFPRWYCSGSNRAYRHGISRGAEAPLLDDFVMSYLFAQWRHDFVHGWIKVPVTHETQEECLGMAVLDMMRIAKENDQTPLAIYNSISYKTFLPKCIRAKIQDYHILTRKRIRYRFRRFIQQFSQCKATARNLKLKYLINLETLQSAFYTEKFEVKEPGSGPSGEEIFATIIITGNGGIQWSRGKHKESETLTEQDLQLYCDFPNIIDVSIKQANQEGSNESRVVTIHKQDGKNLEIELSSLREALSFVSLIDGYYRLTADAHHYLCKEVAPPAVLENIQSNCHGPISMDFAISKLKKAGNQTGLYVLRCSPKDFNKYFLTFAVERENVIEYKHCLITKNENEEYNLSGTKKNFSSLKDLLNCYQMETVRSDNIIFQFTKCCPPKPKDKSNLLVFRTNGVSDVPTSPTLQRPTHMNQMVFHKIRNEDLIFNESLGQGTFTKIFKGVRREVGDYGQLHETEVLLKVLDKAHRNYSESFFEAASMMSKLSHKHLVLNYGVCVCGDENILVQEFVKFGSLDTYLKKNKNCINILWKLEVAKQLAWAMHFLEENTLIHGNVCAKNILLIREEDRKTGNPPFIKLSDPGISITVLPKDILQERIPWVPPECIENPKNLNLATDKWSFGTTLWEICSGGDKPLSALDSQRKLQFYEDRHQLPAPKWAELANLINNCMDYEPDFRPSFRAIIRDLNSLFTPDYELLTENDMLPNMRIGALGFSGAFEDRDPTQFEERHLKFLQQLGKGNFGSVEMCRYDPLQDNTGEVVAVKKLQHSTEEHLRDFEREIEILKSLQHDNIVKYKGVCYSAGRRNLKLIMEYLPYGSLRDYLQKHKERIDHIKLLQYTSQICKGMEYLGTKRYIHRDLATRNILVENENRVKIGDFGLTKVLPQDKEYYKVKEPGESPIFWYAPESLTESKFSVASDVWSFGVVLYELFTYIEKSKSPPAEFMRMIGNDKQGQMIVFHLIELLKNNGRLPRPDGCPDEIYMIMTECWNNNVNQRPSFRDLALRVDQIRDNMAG
Chain of Hck (P08631 whole entry, looked up): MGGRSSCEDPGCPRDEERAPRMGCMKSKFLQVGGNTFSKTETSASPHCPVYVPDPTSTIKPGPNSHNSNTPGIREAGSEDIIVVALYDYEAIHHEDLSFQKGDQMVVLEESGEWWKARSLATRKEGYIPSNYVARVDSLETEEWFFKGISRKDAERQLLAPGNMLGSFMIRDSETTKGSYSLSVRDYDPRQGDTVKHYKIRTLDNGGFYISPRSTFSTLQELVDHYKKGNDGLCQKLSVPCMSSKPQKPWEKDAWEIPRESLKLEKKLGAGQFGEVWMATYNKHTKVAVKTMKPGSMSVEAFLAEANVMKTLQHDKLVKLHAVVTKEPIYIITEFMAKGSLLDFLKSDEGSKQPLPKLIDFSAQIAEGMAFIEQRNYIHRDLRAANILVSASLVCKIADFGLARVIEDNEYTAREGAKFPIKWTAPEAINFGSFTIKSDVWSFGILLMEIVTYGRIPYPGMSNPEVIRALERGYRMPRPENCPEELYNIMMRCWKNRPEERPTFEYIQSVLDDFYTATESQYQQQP

SH2 binding enrichment (Grb2 SH2)	SH2 binding enrichment (c-Src SH2)	SH2 binding enrichment (SHP2-C SH2)	Sequence	phosphorylation enrichment (Hck)	phosphorylation enrichment (Fer (mouse))	phosphorylation enrichment (Jak2)	phosphorylation enrichment (EPHB2)	phosphorylation enrichment (Fyn)	phosphorylation enrichment (EPHB1)	phosphorylation enrichment (FGFR3)	phosphorylation enrichment (c-Src)	phosphorylation enrichment (Fes)	phosphorylation enrichment (FGFR1)	phosphorylation enrichment (MERTK)	phosphorylation enrichment (c-Abl (mouse))	phosphorylation enrichment (AncSZ)
0.8	0.505	0.632	GQDLLYEDEDL [PACS1_Y303_F302L]	0.626	2.38	1.18	0.733	0.674	0.812	0.889	0.613	1.43	0.559	0.595	0.855	1.6
0.746	0.471	0.842	SHLEDYPFDAE [AKR1B10_Y310_N313D]	0.448	0.469	1.3	0.554	0.485	0.516	0.714	0.462	1.14	0.467	0.369	0.672	0.986
0.844	0.468	0.44	SVTCTYSPALS [TP53_Y126_N131S]	0.553	0.508	1.42	0.645	0.424	0.673	0.697	0.719	1.63	0.396	0.42	1.42	2.15
0.802	0.564	0.471	HYPDVYAREQL [ALX3_Y181]	1.14	0.36	0.892	0.513	0.906	0.518	0.58	0.709	0.912	0.651	0.494	0.511	0.481
0.853	0.636	0.789	SQQTYYRVSNM [ABCD1_Y181]	3.23	0.401	6.19	1.12	1.47	1.93	5.82	3	0.678	7.77	3.23	0.795	0.703
0.834	0.547	0.542	DDDPEYRKFLE [UPF3B_Y160]	0.597	0.478	1.06	0.7	0.617	0.612	0.799	0.483	1.22	0.669	0.566	0.577	1.32
0.826	0.66	0.56	TSSGGYRRTPS [ABI1_Y333]	0.409	0.473	0.473	0.532	0.433	0.355	0.428	0.419	0.499	0.386	0.467	0.486	0.499
0.846	0.427	0.647	VKPENYRRPDI [VHL_Y175_L178P]	0.364	0.344	0.525	0.468	0.333	0.335	0.526	0.436	0.699	0.388	0.371	0.63	0.566
0.745	0.564	0.559	EKLQQYLAPGM [EPHB3_Y600_I601L]	0.48	0.54	0.57	0.489	0.398	0.408	0.493	0.347	0.863	0.466	0.487	0.732	0.68
0.768	0.563	0.709	SDPIVYTLENI [EMR1_Y534_I533V]	0.676	2.35	1.2	0.523	4.76	0.465	0.755	4.06	1.69	0.553	0.546	0.873	1.09
1.49	1.27	1.27	RLLVVYHWTQR [HBD_Y36_P37H]	0.85	0.659	1.17	0.514	0.46	0.785	0.75	0.566	1.58	0.458	0.666	1.32	1.42
0.705	0.546	0.611	APQFTYAQGGQ [FLNA_Y1763_YF]	0.415	0.304	0.42	0.739	0.574	0.372	0.628	0.538	0.706	0.585	0.26	0.421	0.645
0.843	1.1	0.887	CTTIHYNYMYN [TP53_Y234_C238Y]	0.563	1.21	0.91	0.69	0.507	0.945	0.844	0.543	1.22	0.877	1	0.684	1.12
0.752	0.429	0.79	VVQGLYKSMPK [KBTBD2_Y250]	0.438	0.328	0.516	0.477	0.34	0.386	0.537	0.403	0.611	0.384	0.532	0.492	0.53
1.35	0.79	1.39	VSNFNYFFHRE [KCNA1_Y413_YF]	0.506	0.472	0.969	0.509	0.454	0.642	0.885	0.445	1.22	0.685	0.45	0.831	1.12
0.964	0.466	1.06	IGNGFYFRVFS [MYBPC3_Y1136_YF]	0.45	0.519	1.43	0.568	0.365	0.64	0.756	0.361	1.38	0.438	0.374	0.818	1.05
0.745	0.453	0.704	TVQVAYFTMMM [SPATA17_Y83_YF]	0.59	0.678	1.15	0.667	0.5	0.662	1.17	0.599	1.41	1.04	0.441	0.791	1.04
